Test results taken from publication PMC9732523.

Target: hnRNP K (UniProt P61978 1-463)
Test: fluorescence anisotropy

With UCCUCCUCCCUUCCCCUCCCGGUCCCUA (ssRNA) [mRunx1 int3-4] the Kd was 14.5 nM.

Work on UCUCUUCCCUCCCUCCUUCCCUCCCCCCAU (ssRNA) [hRUNX1 int3-4] yielded a Kd of 13.5 nM.
